This note sets out measurements from US20020086018A1.

Test [1] addresses huBCMA-Fc (soluble human BCMA-Fc receptor fusion protein) (human). In words: BIAcore 2000; BCMA-Fc immobilised on CM5, Flag-APRIL as analyte, 1:1 Langmuir model.
Test [2] concerns the target mBCMA-Fc (soluble murine BCMA-Fc) (mouse). The description is as above.

Regarding “Soluble murine APRIL-Flag protein (FLAG-tagged soluble mouse G70) (ligand)”, the Kd stood at 0.29 nM in test [1] and 0.25 nM in test [2].
